Results published in patent US20250002570A1 (Innovent, published 2025).

T1: human VEGF C (human, UniProt P49767 103-227, limits assumed)
T1 construct: also called hVEGFC; hVEGF C
T1 sequence (looked up): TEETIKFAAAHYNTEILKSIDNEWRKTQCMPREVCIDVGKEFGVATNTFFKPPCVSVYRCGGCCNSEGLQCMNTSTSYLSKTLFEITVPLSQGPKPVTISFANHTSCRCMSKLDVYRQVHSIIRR


Key:
[1] = molecular target: T1, human VEGF C; experiment: ELISA blocking: VEGFC-biotin captured on streptavidin plate; blocked receptor VEGFR2-Fc (0.2 ug/mL), detected with anti-human Fc-HRP, OD450
Method: The blocking effects of the antibodies of the present invention on the binding of hVEGFC to a receptor KDR were determined.
(§1) SA (streptavidin) was diluted to 1 μg/mL, and 100 μL/well of SA was plated in a microplate at 4° C. overnight. The plate was washed 3 times with PBST and blocked with 3% BSA for 1.5 h. The plate was washed 3 times with PBST, 50 ng/ml of VEGFC-biotin (biotin-labeled human VEGF C) was added, and the plate was incubated for 1.5 h. 50 μL of antibody was incubated with VEGFR2-Fc (with a final concentration of 0.2 μg/mL, Beijing Sino Biological) or VEGFR3-Fc (with a final concentration of 0.2 μg/mL, Beijing Sino Biological) for 20 min in advance, and the mixture was added to the plate. The plate was washed 3 times with PBST, an anti-human FcHRP antibody (diluted in a ratio of 1:10000, BETHYL) was added, and then the plate was incubated for 30 min. The plate was washed 6 times with PBST, the color development was performed with TMB (SOLARBIO) for 5 min, and OD450 nm was read after stopping.

[2] = molecular target: T1, human VEGF C; experiment: BLI (ForteBio), monovalent binding, 30 C
Method: (§2) The equilibrium dissociation constant (KD) for binding of the antibodies of the present invention to human VEGF C was determined by bio-layer interferometry (ForteBio). A ForteBio affinity assay of prior art was performed (Estep. P., et al., “High throughput solution Based measurement of antibody-antigen affinity and epitope binning”, MAbs, 2013.5(2): 270-8).
(§3) 100 μL of SD buffer, antibodies, and antigens (human VEGF C, Beijing Sino Biological) were added to a 96-well black polystyrene half-area microplate (Greiner, 675076). The sensors were arranged according to the positions of the samples. The instrument settings were as follows: the operation procedures were Baseline, Loading −1 nm, Baseline, Association, and Dissociation; the run time of each procedure was dependent on the rates of association and dissociation; the rotation speed was 400 rpm, and the temperature was 30° C. The KD values were analyzed by ForteBio analysis software.

[3] = molecular target: T1, human VEGF C; experiment: ELISA blocking: VEGFC-biotin captured on streptavidin plate; blocked receptor VEGFR3-Fc (0.2 ug/mL), detected with anti-human Fc-HRP, OD450
Method: as §1

[4] = molecular target: T1, human VEGF C; experiment: as above; remark: listed apart in the source
Method: as §1

[5] = molecular target: T1, human VEGF C; experiment: BLI (ForteBio), bivalent binding, 30 C
Method: as §2, §3

[6] = molecular target: T1, human VEGF C; experiment: BLI (ForteBio), bivalent binding, 30 C; * beyond the ForteBio detection limit
Method: as §2, §3

[7] = molecular target: T1, human VEGF C; experiment: ELISA blocking: VEGFC-biotin captured on streptavidin plate; blocked receptor VEGFR3-Fc (0.2 ug/mL), detected with anti-human Fc-HRP, OD450; remark: listed apart in the source
Method: as §1

[8] = molecular target: T1, human VEGF C; experiment: BLI (ForteBio), bivalent binding, 30 C; * beyond the ForteBio detection limit; bivalent binding, ForteBio; kdis at the detection limit
Method: as §2, §3

Molecule	IC50 [1]	Kd [2]	koff [2]	kon [2]	IC50 [3]	IC50 [4]	Kd [5]	kon [5]	koff [6]	IC50 [7]	koff [8]
LA63G12 anti-VEGF C VHH antibody (VHH, The prokaryotic product was purified on Ni Sepharose) VHH: QLQLVESGGGLVQPGGSLRLSCAASGSSFSPYAMGWYRQAPGKQRELVAATTSGGSTLYADSVKGRFTISRDNAKNTVYLQMNSLKPEDTAVYYCYMHWRGSDPENYWGQGTQVTVSS	0.159 µg/mL	16.4 nM	0.000761 s⁻¹	46500 M⁻¹ s⁻¹	0.125 µg/mL	0.342 µg/mL	0.656 nM	305000 M⁻¹ s⁻¹	≤ 0.0002 s⁻¹	0.371 µg/mL	
LA49G9.2 humanized anti-VEGF C VHH-Fc antibody (Fc fusion, not shown: Fc part (and any hinge or linker) of the dimerized VHH-Fc antibody) EVQLVESGGGLVQPGGSLRLSCAASGSMFSMYAMGWYRQAPGKQRELVAATTSGGSTLYADSVKGRFTISRDNSKNTLYLQMNSLRAEDTAVYYCYTYWRGSDPENYWGQGTQVTVSS							≤ 0.645 nM	310000 M⁻¹ s⁻¹	≤ 0.0002 s⁻¹		
LA49G9 anti-VEGF C VHH antibody (VHH, The prokaryotic product was purified on Ni Sepharose) VHH: QLQLVESGGGLVQPGGSLRLSCAASGSMFSMYAMGWYRQAPGKQRELVAATTSGGSTLYADSVKGRFTISRDNAENTVYLQMNSLKPEDTAVYYCYTYWRGSDPENYWGRGTQVTVSS	0.236 µg/mL	10 nM	0.000544 s⁻¹	54300 M⁻¹ s⁻¹	0.0815 µg/mL	0.151 µg/mL	0.613 nM	326000 M⁻¹ s⁻¹		0.352 µg/mL	≤ 0.0002 s⁻¹

Further lines, results first:

IC50 [1]	Kd [2]	koff [2]	kon [2]	IC50 [3]	IC50 [4]	Kd [5]	kon [5]	koff [6]	IC50 [7]	koff [8]	Molecule
0.0118 µg/mL											OPT-302-His
	5.7 nM	0.00036 s⁻¹	63100 M⁻¹ s⁻¹	0.0215 µg/mL							am63G12-5G8-18B9 affinity-matured humanized anti-VEGF C VHH antibody (VHH, also called Am63G2-5G8-18B9; am63G12.1-5G8-18B9) VHH: EVQLVESGGGLVQPGGSLRLSCAASGSSFSPYAMGWYRQAPGKQRELVSATSSGGFTLYADSVKGRFTISRDNSKNTVYLQMNSLRAEDTAVYYCYTYYREYDPEMYWGQGTQVTVSS
	6.21 nM	0.000343 s⁻¹	55300 M⁻¹ s⁻¹		0.0191 µg/mL						am63G12-14B11 affinity-matured humanized anti-VEGF C VHH antibody (VHH, also called am63G12.1-14B11) VHH: EVQLVESGGGLVQPGGSLRLSCAASGSSFSPYAMGWYRQAPGKQRELVSATSEGGFTLYADSVKGRFTISRDNSKNTVYLQMNSLRAEDTAVYYCYMHWRGSDPENYWGQGTQVTVSS
				0.182 µg/mL	0.492 µg/mL	≤ 0.622 nM	322000 M⁻¹ s⁻¹	≤ 0.0002 s⁻¹			LA63G12.1 humanized anti-VEGF C VHH-Fc antibody (Fc fusion, not shown: Fc part (and any hinge or linker) of the dimerized VHH-Fc antibody) EVQLVESGGGLVQPGGSLRLSCAASGSSFSPYAMGWYRQAPGKQRELVSATTSGGSTLYADSVKGRFTISRDNSKNTVYLQMNSLRAEDTAVYYCYMHWRGSDPENYWGQGTQVTVSS
